Experimental data as given in the supplement of paper PMC12636428.

tested on: Saccharomyces cerevisiae; test: transcriptional activation domain activity (GFP:mCherry ratio, weighted mean of sorted bins, harmonized to initial dataset scale) (arbitrary fluorescence ratio units); higher = stronger transcriptional activation; conditions: beta-estradiol 1 µM; induction time 4 h
How it was run: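 Activation activity, the read-weighted mean of bin median fluorescence averaged across barcodes, was linearly mapped onto the scale of the initial dataset. It was measured for barcoded protein tiles fused to an estradiol-inducible synthetic transcription factor at URA3 in GFP-reporter yeast diploids. Cultures diluted 1:5 into SC with 1 uM beta-estradiol were held 4 hours at 30 °C, sorted into 8 bins by GFP:mCherry ratio, and barcode-sequenced, and tiles under 50 reads were discarded.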

Sequence	transcriptional activation domain activity
ISIAQIEIAILFHISFFIFYFVSISFLLLYFICCILCTYVLLIYSLSFLYLVV	45800
LLWGLALVCAFAFGRRRRRWWWWWWWWWLLLLLLLFIFFFWICLSLRFLLWTR	54100
IAYPFFFIHSILLNLYYALLPYAFYLYLYIYIFLSFFSRLTVSSSFIPPLLSP	65000
LYLRLLVGYLFMILVLLCSHNMMIFLLRSLHHLLTFLTCPLHFFLLLLLLMIT	39000
SFMKVLFLLTRYIPFLSTPLDLYYLLAPNMTFRTCLVTFMISRWLLCAGIVCA	56200
MSSPNEKMDVDRASPDRRSKSSRNHSTETHRTKRSHRSRSRGGERDKERRDRR	34300
KGRAEKKKKSSRRRDESESEGEEGEGGGGGGGRAPPKKRARLASKKEAQSGKY	31500
AKPDVKKAKAAPVASPKPKAKAAKKVAEPAVEEKKVEEKAEKLAKKAKATKAE	32700
HLNPSWIFLFLFLFLFSPSPFYFLFLFFFFFFGGVPGNGFGFGILLYFFAAGI	45700
RRKRRERREEERGRDKQGEEGGGRKGGGNRKEGGGGRRGRRSRGGGGGGAEGA	27800
GRPAKSQAEEPVEAAPEPKKRDRQANVAPEPVIEEAPVVKKGRGRPKKDAVTV	29600
SPKKAAAPKKPAAKKATEAKKASVKPKAAKETKEKKEAKPKAAKAAKPAAAAP	28100
MLLPVSYSWLPLLFIPTNASPAFIFLFFVCTYFLNRPCVYCSFLLLILFVTSC	42200
PIARESSSLFLANTPYLSDFLTMGSSYGGSGGFAKSITADPSLDYFNYKNHSH	68600
ELLYKSYLCHLFSFFFPFPFYNIFNIIVHLFFFFLSFLSFFYYFNIYSCLYIY	69800
WDDILTPADNQHRPSLTNQFLSPRSNYDGTTRSSGIDSNYSDTESNYHTPYLY	61600
STVHNLCELVFLPELFGFCCFSMRFFVFIDLLGTLILPATVVYLLYLIITVAT	62500
SHQVLSCLAIFVFPRLAFITLSDNLLILSLRSMMSDFVFLMLLGAWCFLGFLY	55200
MKSLPFGIHTAVCDLISLLLLLLLFFFFFFLLASIWVLDNFFPFFPFSRHLYS	37500
RFLLCLLCMELLLHFVYVGAINSSLPVWDSYTPAQLSLLSFQNLIIIWLKLLL	36800
MSYIRSCLSFSPFFSFLFLFLPFFFLSFLPFSMCFLCKAFECLFVGGIKHMEH	37400

Sequence	transcriptional activation domain activity
PQSEKSFKSAKNAPEKRAEERPRRRKTCARQNMRTNTNAAHTAHATGAITRRI	30100
ESLREIGLTSVRDIITRHASEQAILTVVDFPLRVLAMIAQIRCGLWVRNGFVI	77800
SAKEEPGAAETDADTDPEPAAGKKRKRQEDKGEAQEGGSGKKSVGGKKAKQAE	19200
MIFFLLFFFSFHQVYFSLFSFRRIFLLSFLLLLLPFLLFACVLFSLLTFCPFL	41900
EQFVLRDCGLLLWIDLRFLCHCARICLSACLDNYVYGVANITGKLVRFWGLGV	63400
PKAEAPKAEAPKPKEEESKKETAKQESKPEPKKADASKIAAPAASKPPAPKPS	49200
RIVSSLFFICHGNYYIAFVILSKALDDYVPKIYVLNLNLNHLYLGLLIMCLLL	35800
MFCLRSWLPLLFIPTNASPVFILLFFIGTYFLNRPCVYCSLLLLILFSTSCVW	39400
YILARYSIFFLYYLQFSRGYIPEYLNPTLPSYEEIESWLFLKTVWFQVLIWTV	65500
RRDSVSSSSRGQGGEKGRASSKESNNSGRQGETTSNRSQSKNRAKQTKGDKDS	15900
MMAMAFDPGFRDDEVVQFLLYELGVSSLLFCFVCFGDFVDFLDPFAFWVDLLF	48600
LFFLLLPLLLHVIRIKSNMASSWVMVPLDFQPRHLIPLVENSHCLRNLQIFWL	71300
MLVRISLFLTLPFTLNLLPTMDLCCIGNVKILNYLSKCIHGSLCNHSIILIRL	56300
ESAKDKENAKGRKEAEKKKNKEEKERVKKESRERERESRRSAEGRKRPALASL	25400
GRNAGREDNSNNRNRRGDRRGAPREARAGGNTNGQQQQQQKKGGAPKAAAVDP	35600
RQIESMVAPCLVELRIWNIGAYANLCEYSTWLRLWWIRWSMYGIQFQDKTGKP	61100
MIGDGGRVFRVHSSLSLSFVIFFFSVLLFFFCPFSFVFYCIYAFLVPGLVVLV	35200
MAMTPVRGEGNDGYRTSDGEMESGGTRAQGKVIQRSRWVASSHIVAPAEVEKP	27500
MSDTKSARSGDKERDKRRREKESDSSSKDGRRGSHSHSKTPEEPKEKGHKRKH	13000
EDEQPAAPADGRKKTVTKGADKAGLGGTPVRKNATTAGRGRKPATAKKGASQP	32300
VIYRIDKDELTTGMLLVRNNLVELMAASTGPAAHLRVLVVDLVAPSFRSIPRG	44400
